Key:
[1] = molecular target: Rho13 (Rhodonellum psychrophilum); assay: SEC; Superdex-200 Increase, 0.5 mL/min, Ni-NTA eluates after PD-10 desalting; 100 mM HEPES, 150 mM NaCl, 2 mM CaCl2 pH 6.5 or 50 mM MOPS, 50 mM NaCl, 2 mM CaCl2 pH 7.5; calibrated with lysozyme, carbonic anhydrase and BSA; self-association, monomer and dimer
[2] = molecular target: Rho13 (Rhodonellum psychrophilum); assay: SAXS; nominal 1 mg/mL enzyme (Ika2 1.00, Rho13 0.94, I3C6 0.87 mg/mL by Abs280), 25 °C, 1800 s; indirect Fourier transformation and fits to AlphaFold models; self-association
[3] = molecular target: Rho13 (Rhodonellum psychrophilum); assay: SAXS; nominal 0.5 mg/mL enzyme (Ika2 0.51, Rho13 0.46, I3C6 0.46 mg/mL by Abs280), 25 °C, 1800 s; indirect Fourier transformation and fits to AlphaFold models; self-association

A share of the combined peak area, dimer peak [1] of 26%, a stoichiometry N [1] of 2 and a dimer concentration in the SAXS model fit [2] of 0.69 mg/mL were found for Rho13 (enzyme) in this work. It also gave a monomer concentration in the SAXS model fit [2] of 0.03 mg/mL, a n-mers (SAXS model fit) [2] of 1.96 and a n-mers (indirect Fourier transformation) [2] of 1.58. For the same substance, the dimer concentration in the SAXS model fit [3] was 0.29 mg/mL, the monomer concentration in the SAXS model fit [3] was 0.06 mg/mL and the n-mers (SAXS model fit) [3] was 1.83. The n-mers (indirect Fourier transformation) [3] was 1.38.
